Laboratory results from article PMC10755736 (2023).
Non-standard residues stand in square brackets, D forms with d. No end group written: not given here. pY = N[C@@H](Cc1ccc(OP(=O)(O)O)cc1)C(=O)O

Biological target: Nck adaptor protein (Nck1), recombinant (UniProt P16333 1-377)
Test: MST

Q: EEHI[pY]DEVAAD [peptide Y474 (pY-containing Tir peptide)] was tested. Which Kd did it give?
A: The Kd was 76.4 nM.
